From publication PMC2767389

Target: C1-100, C-terminally truncated C protein of HPIV3, C-terminally flag-tagged (human parainfluenza virus type 3)
Assay: co-IP

Substance “HPIV3 L protein (viral RNA polymerase), non-tagged (from UniProt P12577 1-2233) (enzyme)” has a L/C ratio of 0.03.
